B1: Mothers against decapentaplegic homolog 4 (Homo sapiens), Q13485 (parent)
chain: MDNMSITNTPTSNDACLSIVHSLMCHRQGGESETFAKRAIESLVKKLKEKKDELDSLITAITTNGAHPSKCVTIQRTLDGRLQVAGRKGFPHVIYARLWRWPDLHKNELKHVKYCQYAFDLKCDSVCVNPYHYERVVSPGIDLSGLTLQSNAPSSMMVKDEYVHDFEGQPSLSTEGHSIQTIQHPPSNRASTETYSTPALLAPSESNATSTANFPNIPVASTSQPASILGGSHSEGLLQIASGPQPGQQQNGFTGQPATYHHNSTTTWTGSRTAPYTPNLPHHQNGHLQHHPPMPPHPGHYWPVHNELAFQPPISNHPAPEYWCSIAYFEMDVQVGETFKVPSSCPIVTVDGYVDPSGGDRFCLGQLSNVHRTEAIERARLHIGKGVQLECKGEGDVWVRCLSDHAVFVQSYYLDREAGRAPGDAVHKIYPSAYIKVFDLRQCHRQMQQQAATAQAAAAAQAAAVAGNIPGPGSVGGIAPAISLSAAAGIGVDDLRRLCILRMSFVKGWGPDYPRQSIKETPCWIEIHLHRALQLLDEVLHTMPIADPQPLD

Variants of: B1
Conditions: with grm1_human GRM1, Q13255

| Variant | effect of a mutation on the interaction |
| --- | --- |
| R361C | with no effect |

Variants of: B1
Conditions: with grm3_human GRM3, Q14832
grm3_human GRM3, Q14832, sequence (Q14832 whole entry, looked up): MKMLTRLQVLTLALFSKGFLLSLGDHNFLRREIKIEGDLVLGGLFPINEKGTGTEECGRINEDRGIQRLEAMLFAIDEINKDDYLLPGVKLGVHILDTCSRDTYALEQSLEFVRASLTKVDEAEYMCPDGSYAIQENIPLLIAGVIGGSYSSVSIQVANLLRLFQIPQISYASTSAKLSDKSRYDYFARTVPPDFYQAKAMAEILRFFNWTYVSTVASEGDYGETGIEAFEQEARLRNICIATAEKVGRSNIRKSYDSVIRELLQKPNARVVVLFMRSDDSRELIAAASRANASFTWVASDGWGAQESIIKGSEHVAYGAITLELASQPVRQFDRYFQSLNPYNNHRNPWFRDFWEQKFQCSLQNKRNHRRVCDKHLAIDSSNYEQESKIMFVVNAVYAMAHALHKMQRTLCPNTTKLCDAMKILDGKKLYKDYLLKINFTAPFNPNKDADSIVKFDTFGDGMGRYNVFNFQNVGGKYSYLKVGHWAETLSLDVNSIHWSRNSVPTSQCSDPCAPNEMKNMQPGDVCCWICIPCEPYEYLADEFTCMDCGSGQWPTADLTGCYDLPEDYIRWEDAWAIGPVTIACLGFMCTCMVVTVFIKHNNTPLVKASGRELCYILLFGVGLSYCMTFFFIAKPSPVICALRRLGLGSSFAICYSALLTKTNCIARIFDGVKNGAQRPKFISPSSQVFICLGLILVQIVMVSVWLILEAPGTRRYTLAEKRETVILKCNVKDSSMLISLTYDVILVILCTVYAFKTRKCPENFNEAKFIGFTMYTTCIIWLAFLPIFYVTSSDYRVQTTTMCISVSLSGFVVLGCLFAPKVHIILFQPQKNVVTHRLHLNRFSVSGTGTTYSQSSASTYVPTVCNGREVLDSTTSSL

| Variant | effect of a mutation on the interaction |
| --- | --- |
| R361C | with no effect |

Variants of: B1
Conditions: with gsk3a_human GSK3A

| Variant | effect of a mutation on the interaction |
| --- | --- |
| R361C | with no effect |

Variants of: B1
Conditions: with hdac1_human HDAC1, Q13547

| Variant | effect of a mutation on the interaction |
| --- | --- |
| R361C | with no effect |

Variants of: B1
Conditions: with hdac3_human HDAC3, O15379

| Variant | effect of a mutation on the interaction |
| --- | --- |
| R361C | with no effect |

Variants of: B1
Conditions: with hgf_human HGF

| Variant | effect of a mutation on the interaction |
| --- | --- |
| R361C | with no effect |

Variants of: B1
Conditions: with h31_human H3C1, P68431

| Variant | effect of a mutation on the interaction |
| --- | --- |
| R361C | with no effect |

Variants of: B1
Conditions: with hlab_human HLA-B

| Variant | effect of a mutation on the interaction |
| --- | --- |
| R361C | with no effect |

Variants of: B1
Conditions: with hnf1a_human HNF1A

| Variant | effect of a mutation on the interaction |
| --- | --- |
| R361C | with no effect |

Variants of: B1
Conditions: with rash_human HRAS

| Variant | effect of a mutation on the interaction |
| --- | --- |
| R361C | with no effect |

Variants of: B1
Conditions: with hs90a_human HSP90AA1, P07900

| Variant | effect of a mutation on the interaction |
| --- | --- |
| R361C | with no effect |

Variants of: B1
Conditions: with il7ra_human IL7R

| Variant | effect of a mutation on the interaction |
| --- | --- |
| R361C | with no effect |

Variants of: B1
Conditions: with irf6_human IRF6, O14896

| Variant | effect of a mutation on the interaction |
| --- | --- |
| R361C | with no effect |

Variants of: B1
Conditions: with irs1_human IRS1, P35568

| Variant | effect of a mutation on the interaction |
| --- | --- |
| R361C | with no effect |

Variants of: B1
Conditions: with jak1_human JAK1, P23458

| Variant | effect of a mutation on the interaction |
| --- | --- |
| R361C | with no effect |

Variants of: B1
Conditions: with jak3_human JAK3, P52333
jak3_human JAK3, P52333, sequence (P52333 whole entry): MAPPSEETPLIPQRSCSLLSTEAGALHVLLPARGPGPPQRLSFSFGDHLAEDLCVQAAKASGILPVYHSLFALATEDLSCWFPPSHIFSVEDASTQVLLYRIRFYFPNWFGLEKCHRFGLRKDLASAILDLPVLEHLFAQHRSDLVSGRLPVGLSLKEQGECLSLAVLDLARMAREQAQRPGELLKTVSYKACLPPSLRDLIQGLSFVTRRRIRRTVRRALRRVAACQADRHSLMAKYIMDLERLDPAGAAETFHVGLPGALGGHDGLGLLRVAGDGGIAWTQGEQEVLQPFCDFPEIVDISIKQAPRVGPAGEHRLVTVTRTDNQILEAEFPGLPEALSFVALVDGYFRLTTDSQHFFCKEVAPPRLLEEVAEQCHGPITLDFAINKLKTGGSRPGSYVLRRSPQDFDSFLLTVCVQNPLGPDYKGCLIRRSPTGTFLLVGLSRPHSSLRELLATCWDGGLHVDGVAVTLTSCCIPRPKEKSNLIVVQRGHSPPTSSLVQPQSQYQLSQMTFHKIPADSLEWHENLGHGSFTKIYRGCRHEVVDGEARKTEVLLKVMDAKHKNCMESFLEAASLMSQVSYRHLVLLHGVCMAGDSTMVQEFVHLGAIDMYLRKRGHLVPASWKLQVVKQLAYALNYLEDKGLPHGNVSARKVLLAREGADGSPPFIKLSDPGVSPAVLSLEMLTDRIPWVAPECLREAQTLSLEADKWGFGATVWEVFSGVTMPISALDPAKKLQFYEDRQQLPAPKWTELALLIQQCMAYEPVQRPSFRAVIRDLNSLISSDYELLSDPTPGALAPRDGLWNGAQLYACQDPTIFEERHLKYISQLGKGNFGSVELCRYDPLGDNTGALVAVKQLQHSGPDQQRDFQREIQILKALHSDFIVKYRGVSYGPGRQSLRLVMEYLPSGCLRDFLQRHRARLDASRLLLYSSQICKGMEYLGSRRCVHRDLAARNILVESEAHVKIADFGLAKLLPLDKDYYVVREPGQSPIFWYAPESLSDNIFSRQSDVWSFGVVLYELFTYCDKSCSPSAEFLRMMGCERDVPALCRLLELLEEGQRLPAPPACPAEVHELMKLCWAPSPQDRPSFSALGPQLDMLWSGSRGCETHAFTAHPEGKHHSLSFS

| Variant | effect of a mutation on the interaction |
| --- | --- |
| R361C | with no effect |

Variants of: B1
Conditions: with kdm5c_human KDM5C

| Variant | effect of a mutation on the interaction |
| --- | --- |
| R361C | with no effect |

Variants of: B1
Conditions: with vgfr2_human KDR

| Variant | effect of a mutation on the interaction |
| --- | --- |
| R361C | with no effect |

Variants of: B1
Conditions: with keap1_human KEAP1, Q14145

| Variant | effect of a mutation on the interaction |
| --- | --- |
| R361C | with no effect |

Variants of: B1
Conditions: with klf4_human KLF4, O43474

| Variant | effect of a mutation on the interaction |
| --- | --- |
| R361C | with no effect |

Variants of: B1
Conditions: with maga6_human MAGEA6, P43360

| Variant | effect of a mutation on the interaction |
| --- | --- |
| R361C | with no effect |

Variants of: B1
Conditions: with mp2k7_human MAP2K7, O14733
mp2k7_human MAP2K7, O14733, sequence (O14733 whole entry): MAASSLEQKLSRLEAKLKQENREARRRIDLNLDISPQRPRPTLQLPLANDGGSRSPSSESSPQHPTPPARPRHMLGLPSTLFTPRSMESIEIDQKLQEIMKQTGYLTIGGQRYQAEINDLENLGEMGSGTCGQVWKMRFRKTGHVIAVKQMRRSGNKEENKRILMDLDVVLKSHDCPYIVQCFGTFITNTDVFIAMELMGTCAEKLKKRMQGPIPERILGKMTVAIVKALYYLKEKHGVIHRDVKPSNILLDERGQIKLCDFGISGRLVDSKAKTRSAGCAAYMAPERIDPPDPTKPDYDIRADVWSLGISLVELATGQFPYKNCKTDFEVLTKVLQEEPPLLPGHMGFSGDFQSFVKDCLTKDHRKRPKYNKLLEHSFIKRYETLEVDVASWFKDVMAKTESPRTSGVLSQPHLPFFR

| Variant | effect of a mutation on the interaction |
| --- | --- |
| R361C | with no effect |

Variants of: B1
Conditions: with m3k1_human MAP3K1, Q13233

| Variant | effect of a mutation on the interaction |
| --- | --- |
| R361C | with no effect |

Variants of: B1
Conditions: with mk10_human MAPK10, P53779

| Variant | effect of a mutation on the interaction |
| --- | --- |
| R361C | with no effect |

Variants of: B1
Conditions: with mk14_human MAPK14, Q16539

| Variant | effect of a mutation on the interaction |
| --- | --- |
| R361C | with no effect |

Variants of: B1
Conditions: with mk03_human MAPK3, P27361

| Variant | effect of a mutation on the interaction |
| --- | --- |
| R361C | with no effect |

Variants of: B1
Conditions: with mk04_human MAPK4, P31152
mk04_human MAPK4, P31152, sequence (P31152 whole entry): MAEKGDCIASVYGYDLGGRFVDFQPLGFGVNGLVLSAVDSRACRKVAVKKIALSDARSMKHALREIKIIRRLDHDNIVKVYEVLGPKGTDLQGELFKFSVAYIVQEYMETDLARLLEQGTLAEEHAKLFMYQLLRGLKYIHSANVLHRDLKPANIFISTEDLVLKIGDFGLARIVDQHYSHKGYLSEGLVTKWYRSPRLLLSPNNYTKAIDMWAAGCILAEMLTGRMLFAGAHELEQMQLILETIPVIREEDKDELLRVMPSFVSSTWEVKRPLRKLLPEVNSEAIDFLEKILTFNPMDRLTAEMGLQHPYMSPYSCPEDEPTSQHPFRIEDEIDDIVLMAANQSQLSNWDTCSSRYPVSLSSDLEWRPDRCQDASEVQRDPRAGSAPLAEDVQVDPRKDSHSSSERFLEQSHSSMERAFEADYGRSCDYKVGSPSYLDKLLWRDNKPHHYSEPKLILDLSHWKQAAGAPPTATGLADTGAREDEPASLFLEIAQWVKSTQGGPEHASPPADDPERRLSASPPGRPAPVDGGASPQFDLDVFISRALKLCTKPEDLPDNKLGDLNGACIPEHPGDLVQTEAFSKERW

| Variant | effect of a mutation on the interaction |
| --- | --- |
| R361C | with no effect |

Variants of: B1
Conditions: with mk06_human MAPK6, Q16659

| Variant | effect of a mutation on the interaction |
| --- | --- |
| R361C | with no effect |

Variants of: B1
Conditions: with mcl1_human MCL1, Q07820

| Variant | effect of a mutation on the interaction |
| --- | --- |
| R361C | with no effect |

Variants of: B1
Conditions: with mitf_human MITF

| Variant | effect of a mutation on the interaction |
| --- | --- |
| R361C | with no effect |

Variants of: B1
Conditions: with myc_human MYC

| Variant | effect of a mutation on the interaction |
| --- | --- |
| R361C | with no effect |

Variants of: B1
Conditions: with nf1_human NF1, P21359

| Variant | effect of a mutation on the interaction |
| --- | --- |
| R361C | with no effect |

Variants of: B1
Conditions: with merl_human NF2, P35240

| Variant | effect of a mutation on the interaction |
| --- | --- |
| R361C | with no effect |

Variants of: B1
Conditions: with nfic_human NFIC

| Variant | effect of a mutation on the interaction |
| --- | --- |
| R361C | with no effect |

Variants of: B1
Conditions: with notc2_human NOTCH2, Q04721

| Variant | effect of a mutation on the interaction |
| --- | --- |
| R361C | with no effect |

Variants of: B1
Conditions: with pak3_human PAK3, O75914

| Variant | effect of a mutation on the interaction |
| --- | --- |
| R361C | with no effect |

Variants of: B1
Conditions: with pax5_human PAX5, Q02548
pax5_human PAX5, Q02548, sequence (Q02548 whole entry): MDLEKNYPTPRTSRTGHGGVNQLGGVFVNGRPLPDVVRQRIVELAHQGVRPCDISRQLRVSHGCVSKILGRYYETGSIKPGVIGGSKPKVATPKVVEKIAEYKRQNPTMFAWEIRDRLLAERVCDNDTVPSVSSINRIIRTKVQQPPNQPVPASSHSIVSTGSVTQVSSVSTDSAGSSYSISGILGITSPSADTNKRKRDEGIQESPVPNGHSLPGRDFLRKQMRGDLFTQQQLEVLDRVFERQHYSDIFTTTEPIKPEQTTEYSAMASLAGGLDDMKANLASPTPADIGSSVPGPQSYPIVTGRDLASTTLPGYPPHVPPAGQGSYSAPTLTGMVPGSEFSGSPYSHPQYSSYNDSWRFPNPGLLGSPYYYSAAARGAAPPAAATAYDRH

| Variant | effect of a mutation on the interaction |
| --- | --- |
| R361C | with no effect |

Variants of: B1
Conditions: with pax9_human PAX9, P55771

| Variant | effect of a mutation on the interaction |
| --- | --- |
| R361C | with no effect |

Variants of: B1
Conditions: with pb1_human PBRM1, Q86U86

| Variant | effect of a mutation on the interaction |
| --- | --- |
| R361C | with no effect |

Variants of: B1
Conditions: with pcbp1_human PCBP1, Q15365
pcbp1_human PCBP1, Q15365, sequence (Q15365 whole entry): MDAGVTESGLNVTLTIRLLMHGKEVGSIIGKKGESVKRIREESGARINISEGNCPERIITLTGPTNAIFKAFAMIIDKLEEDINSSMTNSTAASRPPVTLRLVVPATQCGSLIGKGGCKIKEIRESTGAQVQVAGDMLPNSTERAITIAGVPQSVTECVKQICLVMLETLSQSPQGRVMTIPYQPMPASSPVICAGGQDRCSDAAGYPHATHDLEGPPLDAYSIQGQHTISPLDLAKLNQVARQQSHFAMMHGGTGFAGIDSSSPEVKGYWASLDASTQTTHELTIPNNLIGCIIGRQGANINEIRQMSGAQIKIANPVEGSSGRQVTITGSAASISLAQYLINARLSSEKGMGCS

| Variant | effect of a mutation on the interaction |
| --- | --- |
| R361C | with no effect |

Variants of: B1
Conditions: with pgfra_human PDGFRA

| Variant | effect of a mutation on the interaction |
| --- | --- |
| R361C | with no effect |

Variants of: B1
Conditions: with pgfrb_human PDGFRB

| Variant | effect of a mutation on the interaction |
| --- | --- |
| R361C | with no effect |

Variants of: B1
Conditions: with pdk1_human PDK1, Q15118
pdk1_human PDK1, Q15118, sequence (Q15118 whole entry, looked up): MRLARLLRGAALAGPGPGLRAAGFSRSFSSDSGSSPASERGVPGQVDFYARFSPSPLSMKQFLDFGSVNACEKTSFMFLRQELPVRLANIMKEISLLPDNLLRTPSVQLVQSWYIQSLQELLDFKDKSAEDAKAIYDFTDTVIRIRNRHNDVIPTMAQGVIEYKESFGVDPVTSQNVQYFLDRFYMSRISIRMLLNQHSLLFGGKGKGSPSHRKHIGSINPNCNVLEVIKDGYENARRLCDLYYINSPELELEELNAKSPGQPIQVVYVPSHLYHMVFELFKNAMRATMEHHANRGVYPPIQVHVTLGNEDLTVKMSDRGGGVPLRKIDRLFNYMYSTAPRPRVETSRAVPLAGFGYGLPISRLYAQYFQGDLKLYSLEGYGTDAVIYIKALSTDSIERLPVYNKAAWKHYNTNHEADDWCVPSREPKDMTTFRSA

| Variant | effect of a mutation on the interaction |
| --- | --- |
| R361C | with no effect |

Variants of: B1
Conditions: with PIK3C2B

| Variant | effect of a mutation on the interaction |
| --- | --- |
| R361C | with no effect |

Variants of: B1
Conditions: with pk3c3_human PIK3C3, Q8NEB9

| Variant | effect of a mutation on the interaction |
| --- | --- |
| R361C | with no effect |

Variants of: B1
Conditions: with pk3ca_human PIK3CA

| Variant | effect of a mutation on the interaction |
| --- | --- |
| R361C | with no effect |

Variants of: B1
Conditions: with pk3cg_human PIK3CG

| Variant | effect of a mutation on the interaction |
| --- | --- |
| R361C | with no effect |

Variants of: B1
Conditions: with p85a_human PIK3R1, P27986

| Variant | effect of a mutation on the interaction |
| --- | --- |
| R361C | with no effect |

Variants of: B1
Conditions: with p85b_human PIK3R2, O00459
p85b_human PIK3R2, O00459, sequence (O00459 whole entry): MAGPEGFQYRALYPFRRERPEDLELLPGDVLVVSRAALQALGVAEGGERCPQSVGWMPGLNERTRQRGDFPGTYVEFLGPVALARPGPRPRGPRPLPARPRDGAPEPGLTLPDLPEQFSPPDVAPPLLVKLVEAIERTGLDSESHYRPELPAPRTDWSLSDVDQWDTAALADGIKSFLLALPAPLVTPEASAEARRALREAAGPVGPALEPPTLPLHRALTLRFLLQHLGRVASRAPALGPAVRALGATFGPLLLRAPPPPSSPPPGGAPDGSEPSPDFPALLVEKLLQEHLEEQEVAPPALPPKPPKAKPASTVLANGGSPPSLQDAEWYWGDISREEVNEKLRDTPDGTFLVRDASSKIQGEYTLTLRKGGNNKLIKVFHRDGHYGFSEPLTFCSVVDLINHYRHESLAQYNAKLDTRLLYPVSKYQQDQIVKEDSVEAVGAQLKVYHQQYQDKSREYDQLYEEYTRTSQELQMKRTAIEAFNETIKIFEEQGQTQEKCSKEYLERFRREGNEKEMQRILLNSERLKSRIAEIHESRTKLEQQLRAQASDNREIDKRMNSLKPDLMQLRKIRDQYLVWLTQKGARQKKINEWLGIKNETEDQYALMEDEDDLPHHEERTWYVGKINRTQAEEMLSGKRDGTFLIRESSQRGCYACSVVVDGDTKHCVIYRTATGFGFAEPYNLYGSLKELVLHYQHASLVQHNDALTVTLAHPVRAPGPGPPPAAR

| Variant | effect of a mutation on the interaction |
| --- | --- |
| R361C | with no effect |

Variants of: B1
Conditions: with dpod1_human POLD1, P28340

| Variant | effect of a mutation on the interaction |
| --- | --- |
| R361C | with no effect |

Variants of: B1
Conditions: with dpoe1_human POLE

| Variant | effect of a mutation on the interaction |
| --- | --- |
| R361C | with no effect |

Variants of: B1
Conditions: with lipa1_human PPFIA1, Q13136

| Variant | effect of a mutation on the interaction |
| --- | --- |
| R361C | with no effect |

Variants of: B1
Conditions: with 2aaa_human PPP2R1A

| Variant | effect of a mutation on the interaction |
| --- | --- |
| R361C | with no effect |

Variants of: B1
Conditions: with prdm1_human PRDM1, O75626

| Variant | effect of a mutation on the interaction |
| --- | --- |
| R361C | with no effect |

Variants of: B1
Conditions: with aapk2_human PRKAA2, P54646

| Variant | effect of a mutation on the interaction |
| --- | --- |
| R361C | with no effect |

Variants of: B1
Conditions: with aakb2_human PRKAB2, O43741

| Variant | effect of a mutation on the interaction |
| --- | --- |
| R361C | with no effect |

Variants of: B1
Conditions: with prss8_human PRSS8, Q16651

| Variant | effect of a mutation on the interaction |
| --- | --- |
| R361C | with no effect |

Variants of: B1
Conditions: with ptk6_human PTK6, Q13882

| Variant | effect of a mutation on the interaction |
| --- | --- |
| R361C | with no effect |

Variants of: B1
Conditions: with tf65_human RELA

| Variant | effect of a mutation on the interaction |
| --- | --- |
| R361C | with no effect |

Variants of: B1
Conditions: with rnf43_human RNF43, Q68DV7

| Variant | effect of a mutation on the interaction |
| --- | --- |
| R361C | with no effect |
